These results are taken from article doi:10.1101/2022.10.10.511565.

The target in the experiment is Lon-His (C. crescentus) (UniProt B8GX12).
Sequence of UniProt B8GX12 (B8GX12 whole entry): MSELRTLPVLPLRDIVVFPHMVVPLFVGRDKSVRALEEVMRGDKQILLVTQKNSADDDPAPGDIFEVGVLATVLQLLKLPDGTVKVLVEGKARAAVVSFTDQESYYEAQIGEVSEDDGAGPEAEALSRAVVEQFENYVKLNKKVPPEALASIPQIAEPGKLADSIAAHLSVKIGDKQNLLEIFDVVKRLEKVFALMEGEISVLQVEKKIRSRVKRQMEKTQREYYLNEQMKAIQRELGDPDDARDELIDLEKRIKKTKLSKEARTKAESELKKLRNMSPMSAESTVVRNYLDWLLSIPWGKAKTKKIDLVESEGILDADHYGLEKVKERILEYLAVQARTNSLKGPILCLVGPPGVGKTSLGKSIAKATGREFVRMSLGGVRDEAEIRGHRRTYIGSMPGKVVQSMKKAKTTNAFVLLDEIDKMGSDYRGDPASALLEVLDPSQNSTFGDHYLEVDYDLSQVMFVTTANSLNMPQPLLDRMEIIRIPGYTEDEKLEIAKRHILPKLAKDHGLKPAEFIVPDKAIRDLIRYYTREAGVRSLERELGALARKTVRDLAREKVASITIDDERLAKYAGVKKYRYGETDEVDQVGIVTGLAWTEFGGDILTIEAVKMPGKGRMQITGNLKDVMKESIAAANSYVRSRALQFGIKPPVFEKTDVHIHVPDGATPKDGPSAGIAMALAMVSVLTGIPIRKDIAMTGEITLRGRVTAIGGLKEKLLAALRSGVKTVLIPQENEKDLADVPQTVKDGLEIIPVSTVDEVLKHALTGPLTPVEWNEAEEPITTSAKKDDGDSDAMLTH

For the substance His-SciP (natural protein), the Km of His-SciP degradation by Lon-His (0.05 µM hexamer), without LarA stood at 9.3 µM.
